For this assay, the target named is SpyTag-fused glucose dehydrogenase V149C/G190C (Streptococcus pyogenes | Aspergillus flavus).

CYTc-SpyCatcher gave an Imax^app (nA): direct electron transfer current of the complex-immobilized gold electrode on successive glucose addition, chronoamperometry at +400 mV vs. Ag/AgCl; ST-GDH alone hardly gave a response of 55 nA.

The values are drawn from PMC9915066.
